# Source: US20210047412A1
# B1: NAN22 (VHH)
# VHH: QVQLQASGGGLVQPGGSLRLSCAASGSIFGLYAMGWYRQAPGKQRDLVAAIASGGSTNYADSVKGRFTISRDNAKNTVYLQMNSLKPEDTADYYCNVAGDVTAQNRCKHLEVWGQGTQVG
# B2: NAN20 (VHH)
# VHH: QVQLVQSGGEVKKPGASVKVSCKASGYTFTNYGITWARQAPGKGLEWVGGIYSDGSEPYYADSMKGRFTISRDNVKSTLYLQMNDLKPEDTALYFCAKGRGDFLKSAWRENRRYDSWGQGTQVG
# B3: NAN6 (VHH)
# VHH: QVQLQASGGGLVQPGGSLTLSCAASGSIDSILAMGWYRQGPGKQRELVATITSDGGSTNYAEYVKGRFTISRDDANNTACLQMDNLKPDDTAVYYCNAKGRRLSYGYWGQGTQVG
# B4: NAN10 (4B4) (VHH)
# VHH: QVQLQASGGGLVQGGESLRLSCAASGRTVAEYTIGWYRQAPGKEREFVAGPSWHARGTSYLDSVKGRFTISRDNTKDTVYLQMNTLKPEDTAVYYCNADVNTDYSEYVEYWGQGTQVG
# B5: NAN9 (VHH)
# VHH: QVQLQASGGGLVQPGGSLRLSCATSGFTLDNLAIGWLRQAPGKEREGVSCISGSVGSTYYVDSVEGRFTISKDNAKNTVALQMDRLNPEDTAVYYCSAVGRERTHLPNWQYWGQGTQVG
# B6: NAN13/14 (VHH)
# VHH: QVQLQASGGGLAQPGGSLRLSCAASGFTFSSYAMSWARQAPGKGLEWVSGIYSDGSGSYYADSVKGRFTISRDNAKNTLYLQMNSLKPEDTALYYCAKGSWSRGIKETDYWGQGTQVG
# B7: NAN27 (VHH)
# VHH: QPQAFGGGLVQPGGSLRLSCVASGSTDSIYAMGWYRQAPGKQRELVATITSADSTNYADSVKGRFTISRDNAKNTVVLQMNSLKPEDTAVYYCNAGSLAGYDYWGQGTQVG
# B8: NAN15 (4B2) (VHH)
# VHH: QVQLQASGGGLVQPGEHLLLSCAASGFAFGIYTMGWYRQAPGKEREKVASISRTSDSWNYADSVKGRFTISRENAKNTLYLQMNSLKPEDTALYFCAKSRSAWNTDDIEYWGQGTQVG
# B9: NAN4 (5A1) (VHH)
# VHH: QVQLQASGGGLVQPGGSLTLSCAASGSIDSILAMGWYRQGPGKQREFVASISWSGDITYYADSAKGRFTISRDNAKNTVYLQMNSLKPEDTAVYYCNAGPDMQISGPTDDYDYWGQGTQVG
# B10: NAN7/8 (5A5) (VHH)
# VHH: QVQLQASGGGLVEPGGSLRLSCAASGAIFRIAAMGWYRQAPGKERELVATITRGGSTNYADSVKGRFTISRDNAKNTAYLQMDSLKAEDTGVYYCNAGLWATTSANYWGQGTQVG
# Columns and labels:
# canine PD-1 (canine) [1] = assay: ELISA; footnote: predicted affinity, not quantitatively measured
# canine PD-1 (canine) [2] = assay: ELISA on plate-bound tagged canine PD-1, Kd by the Bobrovnik method
# canine PD-1 (canine) [3] = assay: competition ELISA, blockade of canine PD-1/PD-L1 binding; competitor canine PD-L1
# canine PD-1 (canine) [4] = assay: competition ELISA, inhibition of canine PD-1 binding to canine PD-L1; competitor canine PD-L1 (Table 2)
# canine PD-1 (canine) [5] = assay: ELISA, affinity for canine PD-1 (Table 2)
Binder,Kd (canine PD-1 (canine) [1]) [nM],Kd (canine PD-1 (canine) [2]) [nM],IC50 (canine PD-1 (canine) [3]) [nM],IC50 (canine PD-1 (canine) [4]) [nM],Kd (canine PD-1 (canine) [5]) [nM]
B1,> 10,,,,
B2,> 10,,,,
B3,> 10,,,,
B4,,2.3,5.04,5.04,2.3
B5,> 10,,,,
B6,> 10,,,,
B7,> 10,,,,
B8,,2.51,5,5,2.51
B9,,7,8.25,8.25,7
B10,,5.01,6.83,6.83,5.01
